Experimental data reported in US11739161B2, “Methods for treating and diagnosing prostate cancer” (Tufts Medical Center, Inc., priority 2017, dated 2023).

Tests used:
Type in all cases: cell-based, human
[1] = test system: AXL phosphorylation in DU145 cells; assay: AXL phosphorylation (phospho-RTK array, immunoblot); conditions: serum-starved DU145, 1 μg/ml protein
Protocol: FIGS. 12A-F. RNASE4 induces AXL phosphorylation. (A) Human phospho-receptor tyrosine kinase (RTK) antibody array analysis. Serum-starved DU145 cells were treated with or without 1 μg/ml of RNASE4 for 5 minutes. A total of 1.5 mg cell lysate protein was blotted on each array membrane. […] (B) Immunoblot analysis of RNASE4-stimulated AXL phosphorylation. DU145 cells were serum-starved overnight and treated with 1 μg/ml of RNASE4 for the indicated time. Cell lysates were analyzed by antibodies against total AXL and phospho-AXL, with β-actin as the loading control. Left panels, immunoblots; right panel, Image J quantification of p-AXL normalized to total AXL. (C) Immunoblot analysis of phospho-AXL in response to stimulation by ANG, RNase A, and RNASE4. DU145 cells were serum-starved overnight and treated with 1 μg/ml of ANG, RNase A, or RNASE4 for 15 minutes. Left panels, immunoblots; right panel, quantification. (D) Effect of AXL inhibitor R428 on RNASE4-induced cell proliferation. Serum-starved DU145 cells were incubated with 1 or 3 μM R428 for 3 hours and then stimulated by 1 μg/ml of RNASE4 for 3 days. Cell numbers were determined by MTT assay. Data shown are means±SEM of a representative experiment (in triplicates) of 3 independent repeats. **P≤0.01 and ***P≤0.001, by unpaired two-tailed Student's t test. (E) Effect of AXL inhibitor R428 on RNASE4-induced AKT and P6 phosphorylation. Serum-starved DU145 cells were incubated with 1 or 3 μM R428 for 3 hours and then stimulated by 1 μg/ml of RNASE4 for 5 minutes. Cell lysates were analyzed for AKT and P6 phosphorylation by immunoblotting. Top panels, immunoblots; bottom panels, quantification of phospho-AKT and phospho-S6 by Image J analyses normalized to total AKT and P6, respectively. (F) Schematic presentation of proposed involvement of AXL in RNASE4-stimulated cellular events.
Human Phospho-RTK Arrays were purchased from R&D Systems. […] Protein concentrations were quantified by Bradford Assay and 1.5 mg cell lysate was used per array. Pixel densities on were analyzed by ImageJ. […]

PC-3 cells = assay: RNASE4 knockdown, cell proliferation (Coulter counter); conditions: PC-3, exogenous RNASE4 1 μg/ml
From the text: FIGS. 13A-D. RNASE4 knockdown reduces prostate cancer cell proliferation in vitro and colony formation in soft agar. (A) Immunoblot analysis of RNASE4 in PC-3 cells stably transfected with shControl, shRNASE4-1, and shRNASE4-2. (B) qRT-PCR analysis of RNASE4 mRNA normalized to GAPDH in PC-3 cells stably transfected with shControl, shRNASE4-1, and shRNASE4-2. (C) Effect of RNASE4 knockdown on cell proliferation. Cell numbers were counted by a Coulter counter. Exogenous RNASE4, when presented, was at the concentration of 1 μg/ml. Data shown are from representative experiment (in triplicates) of 3 independent repeats. (D) Effects of RNASE4 knockdown on colonies formation and growth of PC-3 cells in soft agar. The same numbers of control and RNASE4 knockdown cells were seeded in soft agar, and grown in the absence or presence of 1 μg/ml of RNASE4 for 14 days. Colonies were counted and size measured on a Nikon Eclipse ti microscope. Left panels, representative images of colonies; scale bars=100 μm. Right panels, quantification of colony numbers and sizes. Data shown are means±SEM from five randomly selected fields per dish from a representative experiment. *P≤0.05, **P≤0.01, and ***P≤0.001, by two-tailed Student's t test.
(§1) Lentiviral mediated shRNA system (pGIPZ, Open Biosystems) was used to generate control and RNASE4 knockdown cell lines. […]

LNCaP cells = assay: as above; conditions: exogenous RNASE4 1 μg/ml
From the text: FIGS. 15A-D. RNASE4 knockdown inhibits LNCaP cell proliferation in vitro and colony formation in soft agar. (A) Immunoblot analysis of RNASE4 in LNCaP cells stably transfected with shControl, shRNASE4-1, and shRNASE4-2. (B) qRT-PCR analysis of RNASE4 mRNA normalized to GAPDH in LNCaP cells stably transfected with shControl, shRNASE4-1, and shRNASE4-2. (C) Effect of RNASE4 knockdown on LNCaP cell proliferation. Cell numbers were counted by Coulter counter. Exogenous RNASE4, when presented, was at the concentration of 1 μg/ml. Data shown are from a representative experiment in triplicates of 3 independent experiments. (D) Effects of RNASE4 knockdown on colonies formation and growth of LNCaP cells in soft agar. The same numbers of control and RNASE4 knockdown cells were seeded in soft agar, and grown in the absence or presence of 1 μg/ml of RNASE4 for 14 days. Colonies were counted and size measured on a Nikon Eclipse ti microscope. Top panels, representative images of colonies; scale bars=100 μm. Bottom panels, quantification of LMCaP cell colonies and sizes in soft agar. Data shown are means±SEM of five randomly selected fields per dish from a representative experiment. **P≤0.01 and ***P≤0.001, by two-tailed Student's t test.
as §1

B1: RNASE4: recombinant human RNASE4 protein from pET11 expression in E. coli, purified by reversed-phase HPLC; added exogenously (protein, UniProt P34096 29-147, looked up)
Ribonuclease 4: QDGMYQRFLRQHVHPEETGGSDRYCNLMMQRRKMTLYHCKRFNTFIHEDIWNIRSICSTTNIQCKNGKMNCHEGVVKVTDCRDTGSSRAPNCRYRAIASTRRVVIACEGNPQVPVHFDG
- phosphorylation of AXL [1]: induced phosphorylation
- rescue of the effect of RNASE4 knockdown on cell proliferation (PC-3 cells): able to rescue
- rescue of the effect of RNASE4 knockdown on cell proliferation (LNCaP cells): able to rescue
